{"source": "the supplement of paper PMC10219994", "parents": {"B1": {"name": "library; a variant is named by its letters at N, in order (parent)", "chain": "GAGACCGCAACTGAAAAGTTGTGGNNNNNATAGTGAGTCGCTGCCTGCAAAGACACAACT"}}, "note": "± gives the standard deviation of the averaged measurements."}
{"variants_of": "B1", "assay": "ligation selection enrichment (abundance after / before one-round selection) (fold); higher = more template-directed ligation activity", "conditions": "with T7Psub CACGGAUGCUAAUACGACUCACUAUA; MgCl2 25 mM; 42 °C; 4 h; pH 8.5", "how_it_was_run": "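RNA ligase library with five randomized core positions (0.75 μM, T7-transcribed) was reacted with RNA substrate (6 μM) in 50 mM EPPS pH 8.5, 25 mM MgCl2 at 42 °C for 4 h, in two independent experiments. Ligated products were PAGE-purified, reverse transcribed, barcoded by PCR and MiSeq-sequenced. Reads with quality score ≥30 at all randomized positions were counted. Enrichment was abundance after ligation divided by abundance before ligation.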"}
{"variant": "GAGACCGCAACTGAAAAGTTGTGGAGATCATAGTGAGTCGCTGCCTGCAAAGACACAACT", "ligation selection enrichment": "0.204 ± 0.0068"}
{"variant": "GAGACCGCAACTGAAAAGTTGTGGGTCACATAGTGAGTCGCTGCCTGCAAAGACACAACT", "ligation selection enrichment": "0.221 ± 0.0092"}
{"variant": "GAGACCGCAACTGAAAAGTTGTGGCTGAAATAGTGAGTCGCTGCCTGCAAAGACACAACT", "ligation selection enrichment": "0.424 ± 0.0081"}
{"variant": "GAGACCGCAACTGAAAAGTTGTGGCAGCCATAGTGAGTCGCTGCCTGCAAAGACACAACT", "ligation selection enrichment": "0.14 ± 0.0077"}
{"variant": "GAGACCGCAACTGAAAAGTTGTGGACCTTATAGTGAGTCGCTGCCTGCAAAGACACAACT", "ligation selection enrichment": "0.117 ± 0.004"}
{"variant": "GAGACCGCAACTGAAAAGTTGTGGGCGTCATAGTGAGTCGCTGCCTGCAAAGACACAACT", "ligation selection enrichment": "0.231 ± 0.09"}
{"variant": "GAGACCGCAACTGAAAAGTTGTGGCATAGATAGTGAGTCGCTGCCTGCAAAGACACAACT", "ligation selection enrichment": "0.237 ± 0.014"}
{"variant": "GAGACCGCAACTGAAAAGTTGTGGCCGCCATAGTGAGTCGCTGCCTGCAAAGACACAACT", "ligation selection enrichment": "0.148 ± 0.0024"}
{"variant": "GAGACCGCAACTGAAAAGTTGTGGAGACCATAGTGAGTCGCTGCCTGCAAAGACACAACT", "ligation selection enrichment": "0.172 ± 0.011"}
{"variant": "GAGACCGCAACTGAAAAGTTGTGGGATATATAGTGAGTCGCTGCCTGCAAAGACACAACT", "ligation selection enrichment": "0.446 ± 0.11"}
{"variant": "GAGACCGCAACTGAAAAGTTGTGGGATAGATAGTGAGTCGCTGCCTGCAAAGACACAACT", "ligation selection enrichment": "0.538 ± 0.016"}
{"variant": "GAGACCGCAACTGAAAAGTTGTGGGGCTTATAGTGAGTCGCTGCCTGCAAAGACACAACT", "ligation selection enrichment": "0.164 ± 0.12"}
{"variant": "GAGACCGCAACTGAAAAGTTGTGGCGCTCATAGTGAGTCGCTGCCTGCAAAGACACAACT", "ligation selection enrichment": "0.0791 ± 0.025"}
{"variant": "GAGACCGCAACTGAAAAGTTGTGGCTCTTATAGTGAGTCGCTGCCTGCAAAGACACAACT", "ligation selection enrichment": "0.133 ± 0.075"}
{"variant": "GAGACCGCAACTGAAAAGTTGTGGCCTATATAGTGAGTCGCTGCCTGCAAAGACACAACT", "ligation selection enrichment": "0.149 ± 0.059"}
{"variant": "GAGACCGCAACTGAAAAGTTGTGGAATATATAGTGAGTCGCTGCCTGCAAAGACACAACT", "ligation selection enrichment": "0.299 ± 0.032"}
{"variant": "GAGACCGCAACTGAAAAGTTGTGGGGAACATAGTGAGTCGCTGCCTGCAAAGACACAACT", "ligation selection enrichment": "0.226 ± 0.0027"}
{"variant": "GAGACCGCAACTGAAAAGTTGTGGCTATCATAGTGAGTCGCTGCCTGCAAAGACACAACT", "ligation selection enrichment": "0.144 ± 0.0049"}
{"variant": "GAGACCGCAACTGAAAAGTTGTGGGGCACATAGTGAGTCGCTGCCTGCAAAGACACAACT", "ligation selection enrichment": "0.395 ± 0.016"}
{"variant": "GAGACCGCAACTGAAAAGTTGTGGAATCGATAGTGAGTCGCTGCCTGCAAAGACACAACT", "ligation selection enrichment": "0.816 ± 0.11"}
{"variant": "GAGACCGCAACTGAAAAGTTGTGGGACCGATAGTGAGTCGCTGCCTGCAAAGACACAACT", "ligation selection enrichment": "0.8601 ± 0.0032"}
{"variant": "GAGACCGCAACTGAAAAGTTGTGGTCGGTATAGTGAGTCGCTGCCTGCAAAGACACAACT", "ligation selection enrichment": "0.115 ± 0.0078"}
{"variant": "GAGACCGCAACTGAAAAGTTGTGGATTAGATAGTGAGTCGCTGCCTGCAAAGACACAACT", "ligation selection enrichment": "1.02 ± 0.19"}
{"variant": "GAGACCGCAACTGAAAAGTTGTGGATTACATAGTGAGTCGCTGCCTGCAAAGACACAACT", "ligation selection enrichment": "0.217 ± 0.042"}
{"variant": "GAGACCGCAACTGAAAAGTTGTGGGCCCTATAGTGAGTCGCTGCCTGCAAAGACACAACT", "ligation selection enrichment": "0.424 ± 0.17"}
{"variant": "GAGACCGCAACTGAAAAGTTGTGGGATTTATAGTGAGTCGCTGCCTGCAAAGACACAACT", "ligation selection enrichment": "0.577 ± 0.15"}
{"variant": "GAGACCGCAACTGAAAAGTTGTGGCCACTATAGTGAGTCGCTGCCTGCAAAGACACAACT", "ligation selection enrichment": "0.416 ± 0.15"}
{"variant": "GAGACCGCAACTGAAAAGTTGTGGCCACAATAGTGAGTCGCTGCCTGCAAAGACACAACT", "ligation selection enrichment": "0.0899 ± 0.017"}
{"variant": "GAGACCGCAACTGAAAAGTTGTGGTTCGGATAGTGAGTCGCTGCCTGCAAAGACACAACT", "ligation selection enrichment": "0.397 ± 0.024"}
{"variant": "GAGACCGCAACTGAAAAGTTGTGGTTCGCATAGTGAGTCGCTGCCTGCAAAGACACAACT", "ligation selection enrichment": "0.331 ± 0.0077"}
{"variant": "GAGACCGCAACTGAAAAGTTGTGGACCGTATAGTGAGTCGCTGCCTGCAAAGACACAACT", "ligation selection enrichment": "0.232 ± 0.081"}
{"variant": "GAGACCGCAACTGAAAAGTTGTGGGCTAAATAGTGAGTCGCTGCCTGCAAAGACACAACT", "ligation selection enrichment": "0.176 ± 0.0063"}
{"variant": "GAGACCGCAACTGAAAAGTTGTGGGAGCGATAGTGAGTCGCTGCCTGCAAAGACACAACT", "ligation selection enrichment": "0.68 ± 0.023"}
{"variant": "GAGACCGCAACTGAAAAGTTGTGGTGTAGATAGTGAGTCGCTGCCTGCAAAGACACAACT", "ligation selection enrichment": "0.307 ± 0.076"}
{"variant": "GAGACCGCAACTGAAAAGTTGTGGGAATGATAGTGAGTCGCTGCCTGCAAAGACACAACT", "ligation selection enrichment": "0.478 ± 0.011"}
{"variant": "GAGACCGCAACTGAAAAGTTGTGGACAGGATAGTGAGTCGCTGCCTGCAAAGACACAACT", "ligation selection enrichment": "0.217 ± 0.025"}
{"variant": "GAGACCGCAACTGAAAAGTTGTGGATAAAATAGTGAGTCGCTGCCTGCAAAGACACAACT", "ligation selection enrichment": "0.228 ± 0.05"}
{"variant": "GAGACCGCAACTGAAAAGTTGTGGACTGGATAGTGAGTCGCTGCCTGCAAAGACACAACT", "ligation selection enrichment": "0.421 ± 0.0057"}
{"variant": "GAGACCGCAACTGAAAAGTTGTGGGACTAATAGTGAGTCGCTGCCTGCAAAGACACAACT", "ligation selection enrichment": "0.161 ± 0.026"}
{"variant": "GAGACCGCAACTGAAAAGTTGTGGTCAGAATAGTGAGTCGCTGCCTGCAAAGACACAACT", "ligation selection enrichment": "0.474 ± 0.043"}
{"variant": "GAGACCGCAACTGAAAAGTTGTGGACGGAATAGTGAGTCGCTGCCTGCAAAGACACAACT", "ligation selection enrichment": "0.204 ± 0.033"}
{"variant": "GAGACCGCAACTGAAAAGTTGTGGCTTGGATAGTGAGTCGCTGCCTGCAAAGACACAACT", "ligation selection enrichment": "0.278 ± 0.035"}
{"variant": "GAGACCGCAACTGAAAAGTTGTGGTCCCGATAGTGAGTCGCTGCCTGCAAAGACACAACT", "ligation selection enrichment": "0.46 ± 0.093"}
{"variant": "GAGACCGCAACTGAAAAGTTGTGGTCCCAATAGTGAGTCGCTGCCTGCAAAGACACAACT", "ligation selection enrichment": "0.209 ± 0.054"}
{"variant": "GAGACCGCAACTGAAAAGTTGTGGTTGCAATAGTGAGTCGCTGCCTGCAAAGACACAACT", "ligation selection enrichment": "0.683 ± 0.015"}
